Columns and labels:
Assay in all cases: cell-based or functional assay
[1] = biological target: SARS-CoV-2 S protein of variant B1.1.7
[2] = biological target: SARS-CoV-2 S protein of variant B.1.525
[3] = biological target: SARS-CoV-2 S protein of variant P.1
[4] = biological target: SARS-CoV-2 S protein of variant B.1.351

B1: Fc tagged nanobody VHH60 (Fc fusion)
chain: EVQLVESGGGLVQPGGSLRLSCAASGRTFRVNLMGWFRQAPGKGRELVASINGFDDITYYPDSVEGRFTISRDNAKRMVYLQMNSLRAEDTAVYYCAAYDSDYDGRLFNYWGQGTQVTVSSGSGGGGSGGGGS
With B1 the “IC50, pseudoviral entry assay (CaCO2 cells)” value (“IC50, pseudoviral entry assay” for short) [1] was 31.8 nM, the “IC50, pseudoviral entry assay” value [2] was 15 nM and the “IC50, pseudoviral entry assay” value [3] was 16.3 nM. The “IC50, pseudoviral entry assay” value [4] was 18.3 nM.

From patent US20240158477A1 (BIODURO JIANGSU, published 2024)
